Results reported in publication PMC7360964, “Auto‐inhibition of Mif2/CENP‐C ensures centromere‐dependent kinetochore assembly in budding yeast” (The EMBO Journal, 2020).
Where no end group is shown, it is not given here.

What was measured:
[1] = biological target: T1, Mtw1-Nnf1 heterodimer (MN) (S. cerevisiae, UniProt P39731 1-289; P47149 1-201); experiment: ITC; peptide (Mif2 1-41 250 μM or Ame1 1-20 800 μM) titrated into 25 μM MN; 30 mM Hepes pH 7.5, 150 mM NaCl, 1 mM TCEP, 25°C; one set of binding sites; average of 3 or 4 experiments; conditions: both partners purified
T1 construct: Mtw1, S. cerevisiae; Nnf1, S. cerevisiae; also called Mtw1/Nnf1 dimer; MN complex; source: E. coli BL21 (DE3), purified (HisTrap, Q flow-through, SEC); not shown: His6, N-terminal, kept
T1 sequence (looked up) 1: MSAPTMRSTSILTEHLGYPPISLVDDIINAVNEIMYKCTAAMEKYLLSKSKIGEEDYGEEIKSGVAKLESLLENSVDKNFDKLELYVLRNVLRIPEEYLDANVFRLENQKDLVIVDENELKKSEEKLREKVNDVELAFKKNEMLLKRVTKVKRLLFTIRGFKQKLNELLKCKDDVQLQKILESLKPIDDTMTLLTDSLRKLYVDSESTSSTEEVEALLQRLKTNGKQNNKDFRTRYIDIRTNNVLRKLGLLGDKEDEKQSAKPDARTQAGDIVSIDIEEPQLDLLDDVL
T1 sequence (looked up) 2: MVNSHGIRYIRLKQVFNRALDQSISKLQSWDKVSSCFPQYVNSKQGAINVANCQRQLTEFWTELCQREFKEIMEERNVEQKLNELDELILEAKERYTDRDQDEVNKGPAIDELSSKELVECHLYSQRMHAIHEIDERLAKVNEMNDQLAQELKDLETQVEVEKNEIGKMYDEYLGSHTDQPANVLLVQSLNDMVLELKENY

[2] = biological target: T1, Mtw1-Nnf1 heterodimer (MN); experiment: fluorescence polarisation; 0.1 μM FITC-Mif2 1-41, MN added from 0 to 4 μM; 30 mM Hepes pH 7.5, 150 mM NaCl, 1 mM TCEP, 23°C; one set of binding sites; triplicates; conditions: both partners purified
[3] = tested on: Ame1‐Okp1 (AO) complex; experiment: Analytical SEC of Mtw1c wild-type and mutants with Ame1-Okp1 (AO); format: binding, budding yeast; conditions: 10 μM each
Experimental: Figure 3 Analysis of Mtw1 interface mutants in vivo • Structure of the Mtw1c head I bound to Mif2 and list of key residues constituting interface I (Mif2 binding) and interface II (putative Ame1 binding) from Dimitrova et al. • Analysis of these Mtw1 mutants in vivo using the anchor‐away technique. Mtw1‐FRB strains containing RPL13‐FKBP12 for cytoplasmic anchoring and additionally harboring the indicated rescue alleles were plated in serial dilution on YEPD or YEPD + rapamycin plates incubated at 30°C. • Tetrad analysis of Mtw1‐wt or mutants. […]
The GST pulldown experiment was performed using BSA‐preblocked GSH Sepharose beads. […] Beads were washed twice in pulldown buffer, before Laemmli sample buffer was added to the beads (GST pulldown) or proteins were eluted in pulldown buffer supplemented with 1 mg/ml Flag peptide before addition of Laemmli sample buffer (Flag pulldown) and samples were analyzed on a Coomassie Brilliant Blue‐stained SDS–PAGE gel or Western blotting. […] Elution of proteins was monitored at 280 nm. 100 μl fractions were collected and analyzed by SDS–PAGE and Coomassie Brilliant Blue staining or Western blotting. […] After several washes with lysis buffer, proteins were eluted with 0.2 mg/ml 3xFlag peptide in lysis buffer, and fractions were analyzed by Western blotting. […]

[4] = tested on: hemizygous Mtw1 deletion strain; experiment: Tetrad analysis, Mtw1 alleles; format: cell-based, budding yeast; conditions: Mtw1 rescue construct only source of Mtw1
Experimental: Figure 3 Analysis of Mtw1 interface mutants in vivo • Structure of the Mtw1c head I bound to Mif2 and list of key residues constituting interface I (Mif2 binding) and interface II (putative Ame1 binding) from Dimitrova et al. • Analysis of these Mtw1 mutants in vivo using the anchor‐away technique. Mtw1‐FRB strains containing RPL13‐FKBP12 for cytoplasmic anchoring and additionally harboring the indicated rescue alleles were plated in serial dilution on YEPD or YEPD + rapamycin plates incubated at 30°C. • Tetrad analysis of Mtw1‐wt or mutants. Surviving spores in which the Mtw1‐wt or mutant rescue construct was the only source of Mtw1 are indicated in pink circles. • Western blotting confirming the expression of Mtw1‐6x‐Flag wt or mutant proteins in the Mtw1‐FRB strain background. • Analytical SEC runs and accompanying SDS–PAGE of Mtw1c‐wt or Mtw1c‐5A mutant (blue), AO (gray), or a stoichiometric combination of both complexes (green) at 10 μM each. Boxes indicate corresponding fractions in left and right panels.
The inability of these alleles to support growth was not due to lack of protein expression, although the steady‐state level was reduced compared to the wild‐type as shown by Western blotting (Fig 3D). We additionally confirmed that Mtw1 interface I mutants indeed confer a lethal phenotype by introducing the respective mutations into a hemizygous Mtw1 deletion strain and performing tetrad dissection. […] The more severe phenotype of Mtw1‐3A in the FRB system compared to tetrad dissection might be due to the additional mutations in the complex genetic background of the anchor‐away strain, which might make it more sensitive to the Mtw1‐3A mutation.
Serial fourfold dilutions of overnight cultures were prepared on 96‐well plates in minimal medium starting from OD600 of 0.6. The dilutions were spotted on YPD medium with and without rapamycin or on YP‐glucose and YP‐galactose and grown at 30°C for 3 days. […]

B1: Ame1-N peptide (aa 1-20) (peptide, UniProt P38313 1-20, looked up)
peptide: MDRDTKLAFRLRGSHSRRTD
notes: Ame1 (CENP-U homolog), S. cerevisiae, residues 1-20; also called Ame1^1-20; Ame1_1-20
B1 gave a Kd [1] of 12500 nM.

B2: Mif2^1-41 peptide (peptide, UniProt P35201 1-41, looked up)
peptide: MDYMKLGLKSRKTGIDVKQDIPKDEYSMENIDDFFKDDETS
notes: Mif2, S. cerevisiae, residues 1-41, unlabeled, used in ITC; also called Mif2-N
With B2 the Kd [1] was 1170 nM.

B3: FITC-Mif2^1-41 (peptide, UniProt P35201 1-41, looked up)
peptide: MDYMKLGLKSRKTGIDVKQDIPKDEYSMENIDDFFKDDETS
modifications: also: FITC label (position not given here)
notes: Mif2, S. cerevisiae, residues 1-41; also called Mif2-N (FITC-labeled N-terminal Mif2 peptide)
B3 showed a Kd [2] of 380 nM.

B4: Mtw1‐5A: Mtw1 D25A D81A K82A E84A Y86A, interface I (protein, UniProt P39731 1-289, looked up, variant D25A D81A K82A E84A Y86A)
Kinetochore-associated …: MSAPTMRSTSILTEHLGYPPISLVADIINAVNEIMYKCTAAMEKYLLSKSKIGEEDYGEEIKSGVAKLESLLENSVDKNFAALALAVLRNVLRIPEEYLDANVFRLENQKDLVIVDENELKKSEEKLREKVNDVELAFKKNEMLLKRVTKVKRLLFTIRGFKQKLNELLKCKDDVQLQKILESLKPIDDTMTLLTDSLRKLYVDSESTSSTEEVEALLQRLKTNGKQNNKDFRTRYIDIRTNNVLRKLGLLGDKEDEKQSAKPDARTQAGDIVSIDIEEPQLDLLDDVL
For B4, the “interaction of Mtw1c with AO, SEC” value [3] was “no longer able to interact efficiently with AO” and the “viability of haploid spores” value [4] was “inviable”.

B5: Mtw1-8A: Mtw1 D25A N32A Y36A E73A D81A K82A E84A Y86A, interface I+II (protein, UniProt P39731 1-289, looked up, variant D25A N32A Y36A E73A D81A K82A E84A Y86A)
Kinetochore-associated …: MSAPTMRSTSILTEHLGYPPISLVADIINAVAEIMAKCTAAMEKYLLSKSKIGEEDYGEEIKSGVAKLESLLANSVDKNFAALALAVLRNVLRIPEEYLDANVFRLENQKDLVIVDENELKKSEEKLREKVNDVELAFKKNEMLLKRVTKVKRLLFTIRGFKQKLNELLKCKDDVQLQKILESLKPIDDTMTLLTDSLRKLYVDSESTSSTEEVEALLQRLKTNGKQNNKDFRTRYIDIRTNNVLRKLGLLGDKEDEKQSAKPDARTQAGDIVSIDIEEPQLDLLDDVL
With B5 the “viability of haploid spores” value [4] was “inviable”.

B6: Mtw1‐3A: Mtw1 E73A N32A Y36A, interface II (protein, UniProt P39731 1-289, looked up, variant E73A N32A Y36A)
Kinetochore-associated …: MSAPTMRSTSILTEHLGYPPISLVDDIINAVAEIMAKCTAAMEKYLLSKSKIGEEDYGEEIKSGVAKLESLLANSVDKNFDKLELYVLRNVLRIPEEYLDANVFRLENQKDLVIVDENELKKSEEKLREKVNDVELAFKKNEMLLKRVTKVKRLLFTIRGFKQKLNELLKCKDDVQLQKILESLKPIDDTMTLLTDSLRKLYVDSESTSSTEEVEALLQRLKTNGKQNNKDFRTRYIDIRTNNVLRKLGLLGDKEDEKQSAKPDARTQAGDIVSIDIEEPQLDLLDDVL
In the case of B6, the “interaction of Mtw1c with AO, SEC” value [3] is reported as “abolish AOc binding” and the “viability of haploid spores” value [4] is reported as “viable, albeit slow‐growing”.
